Measured values: paper PMC6402988 (Nature structural & molecular biology, 2019)

How the values were obtained:
[1] = molecular target: T1, cleaved Ebola virus glycoprotein (EBOV GPCL) (Zaire ebolavirus, Mayinga-76); experiment: cell-based or functional assay
T1 chain 1: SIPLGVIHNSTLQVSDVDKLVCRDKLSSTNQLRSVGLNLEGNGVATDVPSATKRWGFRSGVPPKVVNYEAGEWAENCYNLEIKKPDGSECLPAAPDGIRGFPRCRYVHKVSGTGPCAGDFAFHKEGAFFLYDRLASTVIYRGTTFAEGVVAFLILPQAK
T1 chain 2: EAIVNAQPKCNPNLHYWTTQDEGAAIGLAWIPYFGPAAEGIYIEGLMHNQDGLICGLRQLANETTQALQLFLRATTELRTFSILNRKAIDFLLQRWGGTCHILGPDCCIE

[2] = molecular target: T1, cleaved Ebola virus glycoprotein (EBOV …); experiment: BLI
SUDV GP ectodomain = SUDV GP ectodomain (Sudan ebolavirus; strain not named for …, UniProt Q66814); experiment: cell-based or functional assay

B1: ADI-15946 IgG (antibody, V domains shown)
VH: EVQLVESGGGLVKPGGSLRLSCAASGFTFSNAWMSWVRQAPGKGLEWVGRIKSKTDGGTIDYAAPVKGRFTISRDDSKNTVYLQMTSLKTEDTAVYYCTTYTEDMRYFDWLLRGGETFDYWGQGTLVTVSS
VL: DIRLTQSPSSLSASVGDRVTITCRASHYISTYLNWYQQKPGKAPKLLIYAASNLQSGVPSRFSGSGFGTDFSLTISSLQPEDFATYHCQQSYSTPGRYTFGQGTKVEIK
- neutralization potency against rVSV-EBOV GPCL compared to rVSV-EBOV GPFL [1]: 100 fold
- fold improvement in binding (KDapp) against full-length GP [2]: 10000 fold
- fold increased kon against EBOV GPFL [2]: 10 fold
- fold slower koff against EBOV GPFL [2]: > 1000 fold

B2: 46M3 (antibody, V domains shown)
VH: EVQLVESGGGLVKPGGSLRLSCAASGFTFSNAWMSWVRQAPGKGLEWVGRIKSKTDGGTIDYAAPVKGRFTISRDDSKNTVYLQMTSLKTEDTAVYYCTTYTEDMAYFDWLLRGGETFDYWGQGTLVTVSS
VL: DIRLTQSPSSLSASVGDRVTITCRASHYISTYLNWYQQKPGKAPKLLIYAASNLQSGVPSRFSGYGYGTDFSLTISSLQPEDFATYHCQQSYSTPGRYTFGQGTKVEIK
- fold improvement in neutralization of authentic SUDV against parental ADI-15946 (SUDV GP ectodomain): 33 fold

B3: ADI-15946 LC^WT:HC^IGL (antibody, V domains shown)
VH: not shown
VL: DIRLTQSPSSLSASVGDRVTITCRASHYISTYLNWYQQKPGKAPKLLIYAASNLQSGVPSRFSGSGFGTDFSLTISSLQPEDFATYHCQQSYSTPGRYTFGQGTKVEIK
- binding result [2]: binds

B4: 46M2 (antibody, V domains shown)
VH: EVQLVESGGGLVKPGGSLRLSCAASGFTFSNAWMSWVRQAPGKGLEWVGRIKSKTDGGTIDYAAPVKGRFTISRDDSKNTVYLQMTSLKTEDTAVYYCTTYTEDMAYFDWLLRGGETFDYWGQGTLVTVSS
VL: DIRLTQSPSSLSASVGDRVTITCRASHYISTYLNWYQQKPGKAPKLLIYAASNLQSGVPSRFSGYGFGTDFSLTISSLQPEDFATYHCQQSYSTPGRYTFGQGTKVEIK
- fold improvement in neutralization of authentic SUDV against parental ADI-15946 (SUDV GP ectodomain): 33 fold
